Results on three substances are retold here after publication PMC3173040.

Test [1] concerns the target actin (UniProt P68135). The experiment in a line: SAXS.
For test [2], the target named is VopL fragment 200-484 (1W-VCD) (Vibrio parahaemolyticus) (UniProt Q87GE5). Description: SEC-MALS.
For test [3], the target named is actin (UniProt P68135). Description: SEC-MALS. (In gel filtration, larger molecules generally elute earlier.)
Test [4] deals with actin (UniProt P68135). Description: ITC.
For test [5], the target named is 3W-VCD-AviTag bound to quantum dots (Vibrio parahaemolyticus) (UniProt Q87GE5). The experiment in a line: TIRF microscopy.

In general, stoichiometry N refers to a count of units in the complex or per binding partner. For “VopL fragment 200-484 (1W-VCD) (from UniProt Q87GE5 200-484) (domain or fragment)”, the stoichiometry N (actin molecules per 1W-VCD dimer) with actin [1] and with actin [3] was 2 throughout. For the same substance, in test [2], the stoichiometry N was 2.

The term Kd denotes the concentration at which binding is half-saturated. Lower therefore signals a tighter complex. “third W domain of VopL (domain or fragment)”: the Kd with actin [4] is 410 nM.

In test [5], “actin (from UniProt P68135 1-377) (natural protein)” displayed a percent of filaments associated with Qdots through the pointed end of 10.9%.
